Experimental data taken from patent publication US20170073408A1 (Amgen, published 2017).
Substitutions are numbered along the chain they refer to.

B1: anti-activin A monoclonal antibody A2 (antibody, human IgG2, kappa, V domains shown)
VH: QVQLVESGGGVVQPGRSLRLSCAASGFTFSSYGMHWVRQAPGKGLEWVAVIWYDGSNKYHADSVKGRFTISRDNSKNTLYLQVNSLRAEDTAVYYCVRSRNWNYDNYYYGLDVWGQGTTVTVSS
VL: DIQMTQSPSSLSASVGDRVTITCRASQGIRNNLGWYQQKPGKAPKRLIYAASSLQSGVPSRFSGSGSGTEFTLTISSLQPEDFTTYYCLQHNSYPWTFGQGTKVEIKR
notes: Fully human antibody from XenoMouse hybridoma; also called L2H2
B2: anti-activin A monoclonal antibody A3 (antibody, human IgG2, kappa, V domains shown)
VH: EVQLVESGGGLVQPGGSLRLSCAASGFTFSSYWMSWVRQAPGKGLECVANIKQDGSEEYYVDSVKGRFTISRDNAKNSLYLQMNSLRAEDTAVYYCARGSSSWYYYNYGMDVWGQGTTVTVSS
VL: B1 VL with N32D, T84A, L89R, H91Q, S93T, W96L, Q100G
notes: Fully human antibody from XenoMouse hybridoma; also called L3H3
B3: A6 (antibody, V domains shown)
VH: QVQLQQWGAGLLKPSETLSLTCAVYGGSFSAYYWSWIRQPPGKGLEWIGEINHSGGTNYNPSLKSRVTISVDTSKNQFSLKLSSVTAADTAVYYCARVQWLELAYFDYWGQGTLVTVSS
VL: DIQMTQSPSSLSASVGDRVTITCRASQSISNYLNWYQQRPGKAPKLLIYATSSLQSGVPSRFSGSGSGTDFTLTISSLQPEDFVSYYCQQSYSISPTFGGGTKVENK
notes: also called antibody A6; L6H6
B4: A7 (antibody, V domains shown)
VH: QVQLVDSGGGVVQPGRSLRLSCAASGFTFISYGMHWVRQAPGKGLEWVAVIWYDGSTEYYADSVKGRFTISRDNSKNTLYLQMNSLRAEDTAVYYCARERQWLYHYGMDVWGQGTTVTVSS
VL: DIQMTQSPSSLSASVGDRVTITCRAGQGIRNDLVWYQQKPGKAPKRLIYAASSLQSGVPSRFSGSGSGTEFTLTISSLQPEDFATYYCLQHNTYPFTFGPGTKVDIK
notes: also called antibody A7; L7H7
B5: A9 (antibody, V domains shown)
VH: B1 VH
VL: B4 VL with G26S, D32N, V34G, A84T, T93S, F96W, P100Q, D105E
notes: also called antibody A9; L9H9
B6: A8 (antibody, V domains shown)
VH: QVQLQESGPGLVKPSETLSLTCTVSGGSINSFYWSWIRQPPGKGLEWIGYIYYSGSTNYNPSLKRRVTISVDTSKTQFSLKLSSVTAADTAVYYCARDSIAAPFDYWGQGTLVTVSS
VL: DIVMTQSPDSLAVSLGERATITCKSSQSILYSSNNKKYLVWYQQKPGQPPKLIIYWTSMRESGVPDRFSGSGSGTDFTLTISSLQAEDVAVYYCQQYYSTPWTFGQGTKVEIK
notes: also called antibody A8; L8H8
B7: A5 (antibody, V domains shown)
VH: B6 VH with R65S
VL: B6 VL with S82N
notes: also called antibody A5; L5H5
B8: A13 (antibody, V domains shown)
VH: QVQLVQSGAEVKKPGASVKVSCKASGYTFTSYGISWVRQAPGQGLERMGWISAYNGNTNYAQKFQGRVTMTTDTSTTTAYMELRSLRSDDTAVYYCARDQDYYDSSGWGHWGQGTLVTVSS
VL: SYELTQPPSVSVSPGQTASITCSGDKLGDKYVCWYQQKPGQSPELVIYLDNKRPSGIPERFSGSNSGNTATLTISGTQAMDEADYYCQAWDSSTVFGGGTKLTVL
notes: also called antibody A13; L13H13
B9: A14 (antibody, V domains shown)
VH: B8 VH with A24T, R47W, A53P, T74K, T77S, G109D, H110P
VL: B8 VL with V32A, C33F, E44V, I47F, L49H, N51T, Y86H
notes: also called antibody A14; L14H14

How the values were obtained:
[1] = target: T1, recombinant human activin A (mature) (human, UniProt P08476 311-426); assay: cell-based or functional assay
T1 sequence: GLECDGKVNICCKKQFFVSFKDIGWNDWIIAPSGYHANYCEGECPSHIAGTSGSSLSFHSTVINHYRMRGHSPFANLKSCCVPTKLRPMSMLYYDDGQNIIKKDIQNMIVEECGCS

[2] = target: T1, recombinant human activin A (mature); assay: KinExA solution equilibrium, activin A-coated beads
Protocol: Solution-based equilibrium-binding assays using KinExA™ technology (Sapidyne Instruments, Inc.) were used to determine the dissociation equilibrium (KD) of activin A binding to antibody molecules. This solution-based assay is considered to be more sensitive than the BIAcore assay in some instances. Reacti-Gel™ 6× was pre-coated with about 50 μg/ml activin A overnight, and then blocked with BSA. 30 pM and 100 pM of antibody samples were incubated with various concentrations (0.5 pM to 5 nM) of activin A in sample buffer at room temperature for 8 hours before being run through the activin A-coated beads. The amount of the bead-bound antibody was quantified by fluorescent (Cy5) labeled goat anti-human-Fc antibody at 1 mg/ml in superblock. The binding signal was proportional to the concentration of free antibody at equilibrium with a given activin A concentration. KD was obtained from the nonlinear regression of the competition curves using a dual-curve one-site homogeneous binding model provided in the KinEx ATM software (Sapidyne Instruments, Inc.). […] A2 and A3 bound to activin A at ˜15 pM and ˜8 pM, respectively.

BMP4 = target: T2, BMP4 (UniProt P12644 293-408); assay: BIAcore, antibody pre-incubated with ligand, ActRIIB/Fc on chip
T2 construct: Bought
T2 sequence (looked up): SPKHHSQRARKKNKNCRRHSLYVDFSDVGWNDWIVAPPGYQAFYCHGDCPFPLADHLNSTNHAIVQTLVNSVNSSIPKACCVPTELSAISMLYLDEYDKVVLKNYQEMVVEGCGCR
Protocol: (§1) These assays were performed using BlAcore® technology, to determine the selectivity of binding of antibodies A1, A2 and A3 to various activins and other TGF-β family members, including activin A, activin B, activin AB, inhibin A, GDF-8, GDF-11, TGF-β-1, TGF-β-3, and BMP4 (all from R & D Systems). […] Because BlAcore assays detect changes in the refractive index, the difference between the response detected with injection over the immobilized receptor surfaces compared with the response detected with injection over the control surface in the absence of any antibody represents the actual binding of the various ligands to the receptor. With pre-incubation of antibodies and activin and TGF-β molecules, a change (increase or decrease) in binding response indicates antibody binding to the TGFβ family of molecules. The antibodies all bound to activin A but not to activin B, GDF-8, GDF-11, TGF-β-1, TGF-β-3, and BMP4, thus indicating specificity for activin A.

GDF-8 = target: T3, GDF-8 (UniProt O14793 267-375); assay: as above
T3 construct: Bought
T3 sequence (looked up): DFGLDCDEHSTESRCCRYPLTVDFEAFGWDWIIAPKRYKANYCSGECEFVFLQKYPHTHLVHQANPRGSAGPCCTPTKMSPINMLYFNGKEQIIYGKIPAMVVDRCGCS
Protocol: as §1

GDF-11 = target: T4, GDF-11 (UniProt O95390 299-407); assay: as above
T4 construct: Bought
T4 sequence (looked up): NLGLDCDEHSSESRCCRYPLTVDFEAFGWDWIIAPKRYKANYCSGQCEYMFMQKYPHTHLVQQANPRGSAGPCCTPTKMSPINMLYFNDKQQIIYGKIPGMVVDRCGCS
Protocol: as §1

TGF-β-1 = target: T5, TGF-β-1 (UniProt P01137 279-390); assay: as above
T5 construct: Bought
T5 sequence (P01137 279-390 limits assumed): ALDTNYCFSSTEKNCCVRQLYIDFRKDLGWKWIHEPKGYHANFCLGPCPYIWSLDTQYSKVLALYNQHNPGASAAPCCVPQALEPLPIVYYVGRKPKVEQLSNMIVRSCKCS
Protocol: as §1

TGF-β-3 = target: T6, TGF-β-3 (UniProt P10600 301-412); assay: as above
T6 construct: Bought
T6 sequence (looked up): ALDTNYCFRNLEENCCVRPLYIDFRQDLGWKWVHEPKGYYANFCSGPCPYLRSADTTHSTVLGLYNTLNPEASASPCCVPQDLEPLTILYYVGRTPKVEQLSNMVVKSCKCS
Protocol: as §1

activin B = target: T7, activin B (UniProt P09529 293-407); assay: affinity analysis of Example 15 (antibody immobilized on a surface)
T7 construct: Bought (R & D Systems)
T7 sequence (looked up): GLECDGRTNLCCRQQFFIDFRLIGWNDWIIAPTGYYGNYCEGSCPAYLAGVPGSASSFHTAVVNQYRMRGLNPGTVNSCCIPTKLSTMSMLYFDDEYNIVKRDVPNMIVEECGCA

[3] = target: T1, recombinant human activin A (mature); assay: affinity analysis of Example 15 (method of the KD not given)
[4] = target: T1, recombinant human activin A (mature); assay: BIAcore blocking assay, 1 nM activin A; competitor rhActivin RIB/Fc chimera on chip
Protocol: (§2) Blocking assays were conducted on immobilized recombinant human activin RIB-Fc chimera surfaces, recombinant human activin RIIB-Fc chimera surfaces, and recombinant human RIIA-Fc chimera recombinant surfaces, as described in Example 5. Monoclonal antibodies A1, A2, AKA1, and AKA2 on each chimera surface were incubated with 1 nM activin A, and the relative binding response (%) was measured.

[5] = target: T1, recombinant human activin A (mature); assay: Biacore: 1 nM Activin A + sample over rhActivin RIIB/Fc Chimera surface; rising ('carry on') curve
Protocol: as §2

A/B13-39 = target: T8, A/B13-39; assay: Biacore blocking: 100 nM antibody + diluted conditioned medium (CM) of the ligand over ActRIB-Fc surface
T8 construct: also called Activin A 13/39 B
T8 activin A/B chimeric subunit: T1 sequence with K13R, K14Q, V18I, S19D, K21R, D22L, S33T, H36Y, A37G

[6] = target: T1, recombinant human activin A (mature); assay: Biacore blocking: 1 nM Activin A + antibody over rhActRIB-Fc chimera surface. No unit in the drawn table; M by Table 7, which prints this value rounded as 0.18 nM
A/B82-107 = target: T9, A/B82-107; assay: Biacore blocking: 100 nM antibody + diluted conditioned medium (CM) of the ligand over ActRIB-Fc surface
T9 activin A/B chimeric subunit: T1 sequence with V82I, R87S, P88T, Y94F, G97E, Q98Y, I101V, K103R, I105V, Q106P

[7] = target: T1, recombinant human activin A (mature); assay: Biacore premix competition: 2 nM rhActivinA + 20 nM antibody over immobilized AKA1

Binder | binding result (A/B13-39) | binding result (A/B82-107) | binding result [7] | other results
B1 | binds | – | – | Cell IC50 (nM); luciferase activity of C2C12/pMARE reporter cells, activin A fixed at 4 nM [1]: < 3 nM; Kd [2]: ~0.015 nM; binding result (BMP4): no binding; binding result (GDF-8): no binding; binding result (GDF-11): no binding; binding result (TGF-β-1): no binding; binding result (TGF-β-3): no binding; binding result (activin B): no binding; Kd [3]: ~0.025 nM; EC50 [4]: 0.18 nM; EC50 (read off the curve) [5]: ~1 nM; EC50 [6]: 0.177 nM
B2 | binds | no binding (tested: 100 nM) | – | Cell IC50 (nM); luciferase activity of C2C12/pMARE reporter cells, activin A fixed at 4 nM [1]: < 3 nM; Kd [2]: ~0.008 nM; binding result (BMP4): no binding; binding result (GDF-8): no binding; binding result (GDF-11): no binding; binding result (TGF-β-1): no binding; binding result (TGF-β-3): no binding; binding result (activin B): no binding; Kd [3]: ~0.011 nM
B3 | binds | binds | binds | –
B4 | binds | no binding (tested: 100 nM) | binds | –
B5 | binds | no binding (tested: 100 nM) | – | –
B6 | binds | binds | binds | –
B7 | binds | binds | binds | –
B8 | binds | binds | binds | –
B9 | no binding (tested: 100 nM) | binds | binds | –
